Positions count from the first letter of the chain named.
T1: recombinant His6-tagged extracellular domain of human Clec4C (C-type lectin domain family 4, member C) (human, UniProt Q8WTT0 44-213)
T1 construct: Same antigen for immunisation, panning and ELISA; also called His-Clec4C(EC); pMET7-SIgK-His-Clec4C(EC)
T1 sequence: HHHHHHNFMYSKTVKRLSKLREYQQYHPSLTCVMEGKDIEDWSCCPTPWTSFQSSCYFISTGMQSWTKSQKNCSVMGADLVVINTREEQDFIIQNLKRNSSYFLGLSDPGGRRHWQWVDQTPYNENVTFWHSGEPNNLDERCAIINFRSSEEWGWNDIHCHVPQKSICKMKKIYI

B1: 2CL89 (VHH)
VHH: QVQLQESGGGTVQPGESLRLSCEVSTDTFSSLAMAWFRQATAKDREFVAAISWSGDSTVYGDSVKGRFTMTRDHPKKMVYLQMDNLKPEDTAVYYCAGDLDGRTWHGDDLEYDYWGQGTQVTVSS
notes: pMECS VHH-HA-His6; TG1 periplasmic extract
B2: 2CL84 (VHH)
VHH: QVQLQESGGGSVQAGGSLRLSCAASGRTFSDYAMGWFRQAPGKEREFVATISKSGSSTDYADSAKGRFTISRDNAKKTVYLQINSLKTEDTAVYYCAARLSFDNTAFYTSAIRYSDWGQGTQVTVSS
notes: as for B1
B3: 2CL92 (VHH)
VHH: B2 VHH with G16D, D31G, K53T, D59Y, A64V, T78S, T91A, D116Y
notes: as for B1
B4: 2CL21 (VHH)
VHH: QVQLQESGGGLVQAGGSLRLSCAASGRTFTGYAMGWFRQVPGLEREFVARISRSGNSTGYADSVKGRFTVSRDNAKSTMYLQMNSLKTEDTAVYYCAATTSWLPGHNANVYDYWGQGTQVTVSS
notes: as for B1
B5: 2CL30 (VHH)
VHH: B4 VHH with L11S, T30S, G31D, N56D, S77N, M79V
notes: as for B1
B6: 2CL71 (VHH)
VHH: QVQLQESGGGLVQAGGSLRLSCAASGLTFGRYAMGWFRQVPGLEREFIARISRSGDNTGYADSVKGRFTVSRDSAKSTVYLQMNSLKTEDTAVYYCAAGTSWVPGHNANAYDYWGQGTQVTVSS
notes: as for B1
B7: 2CL7 (VHH)
VHH: QVQLQESGGGLVQAGDSLRLSCAPSGFTFDGYAIGWFRQAPGKEREKVACINKSDGLTYYEDSVKGRFTISSDTAKNTIHLQMNSLKPDDTAVYYCAAAWECDYAPADFGSWGQGTQVTVSS
notes: as for B1
B8: 2CL18 (VHH)
VHH: B7 VHH with D16G
notes: as for B1
B9: 2CL26 (VHH)
VHH: QVQLQESGGGWVQPGDSLRLSCAASGFTFSDYAVGWFRQAPGKEREFVARITRLGNGPYYSASVKGRFTISRDNARDMAYLKMDALTPEDTATYYCAAGRTLASTHDTKTSPQTYDYWGLGTQVTVSS
notes: as for B1
B10: 2CL55 (VHH)
VHH: B9 VHH with F27S, L120Q
notes: as for B1
B11: 1CL47 (VHH)
VHH: QVQLQESGGGLVQAGGSRRLSCAASGRTFINYAMGWFRQAPGKEREFVAAISTSGSNTYLADSLKARFTISRDNAKNTVYLQIRSLNPEDTAVYYCAARLSFDDSAYYTSTLRYAYWGQGTQVTVSS
notes: as for B1
B12: 2CL59 (VHH)
VHH: QVQLQESGGGLVQPGDSLTLSCADSGRTFSNYAMGWFHQAPGKEREFVAAISTSGGSTAYADSVKGRFTISRDNAKNTVYLQMNNLKPEDTAVYYCAARLSFSGSSYYQGPLQYPYWGQGTQVTVSS
notes: as for B1
B13: 2CL16 (VHH)
VHH: QVQLQESGGGLVQPGGSLRLSCAASGDTFSNYAMGWFRQAPGKAREFVAAISRSAGSTYHVDSVKGRFTISRDNAMNTVYLQMNSLQPEDTAHYYCAARLTFNLIDYYTAETRYTYWGQGTQVTVSS
notes: as for B1
B14: 2CL91 (VHH)
VHH: QVQLQESGGGLVQAGDSLRLSCTASERTFSNYAMGWFRLAPGKERKFVAAISTSGGTTDYVDSVKGRFTISRDNAKNTVYLQMNSLKPEDTAVYYCAARLDFSSTDLYTTAPRYPYWGQGTQVTVSS
notes: as for B1
B15: 2CL15 (VHH)
VHH: QVQLQESGGGLVQPGGSVRLSCAASVFTLNNFIMSWVRQAPGKGLERVSDINMVGITDYSDPVKGRFTISRDNKQNTVYLQGNTLKPEDTAVYFCAAGRPIGLYYPSPRIRDYNDWGQGTQVTVSS
notes: as for B1
B16: 2CL81 (VHH)
VHH: QVQLQESGGGLVQAGDSLKLSCAASGRTFSTYAMGWFRQAPGKERDVVAAIATNGGTTYYVDSVKGRFTISRDNAQNRVYLQMNSLKPEDTAIYYCAARLSFGSGYYTNKLNYAYWGQGTQVTVSS
notes: as for B1
B17: 1CL81 (VHH)
VHH: QVQLQESGGGLVQAGNSLKLSCAASGRNLAYYVMGWFRQAPGREREPVATLTRGGDDTYCADSVKGRFTISSDNAKNTVYLQMNNLKPEDTAIYTCAARLAVLSSNTYCSGLWDYWGQGTQVTVSS
notes: as for B1
B18: 1CL56 (VHH)
VHH: QVQLQESGGGLVQPGGSLTLSCGASGFDFSDYVMYWLRQAPGKGLQWVSSINASGVRTYYVDALKGRFTISRDNAKNTLYLQIDDLKPEDTGLYYCARVGQAPMYFGVDFWGNGTQVTVSS
notes: as for B1
B19: 2CL40 (VHH)
VHH: QVQLQESGGGLVQTGGSLRVSCAASGRSISNYNMGWFRQPPGKEREIVGSIRWDGDSTYYADSVKGRFTISRDNTKNTVYLQMNSLKSEDTADYYCAATVSSFDESKNPRWYPYWGQGTQVTVSS
notes: as for B1
B20: 2CL65 (VHH)
VHH: QVQLQESGGGLVQPGGSLRLSCAASGRIFSINAMGWYRQAPGKQRELVAVISRSGISNYVDSVKGRFTISRDNAKNTVYLQMNSLNPEDTADYYCNADVLLTFNKREDSWGQGTQVTVSS
notes: as for B1
B21: 2CL57 (VHH)
VHH: QVQLQESGGGLVQAGGSLKLSCAASGRTFSSYAMGWFRQAPGKERDFVAVISWRNNTYYADSVKGRFTISRDNAKNTVHLQMNSLKSEDTAVYYCAAAGLGAVVAGMSDYDYWGQGTQVTVSS
notes: as for B1
B22: 2CL56 (VHH)
VHH: QVQLQESGGGSVQAGDSLTLSCIASGRTFSSLAMGWFRQAPGKEREFVAAINWSGDSTYYSDSMKGRLTMSRDNAKNTVFLQMNSLEPEDTAVYVCAADASGYGSAWPDRYDYWGQGTQVTVSS
notes: as for B1
B23: 2CL66 (VHH)
VHH: QVQLQESGGGLVQAGGSLRLSCAASERTFTNYAMGWFRQGPGKDRAFVAAISRSGSSTSYADSVKGRFTISRDNAENILYLQMNSLKPEDTAVYYCAAAPLVLKTTPGAYNYWGQGTQVTVSS
notes: as for B1
B24: 2CL34 (VHH)
VHH: QVQLQESGGGLVQAGGSLRLSCAASGRTFTNYAMGWFRQAPGKEREFVATISRSGSMPYYADSVKGRFTISRDNAKNMVYLQMNSLKPEDTAVYYCAANVLVTTTRLDQYDSWGQGTQVTVSS
notes: as for B1
B25: 2CL46 (VHH)
VHH: QVQLQESGGGLVQAGGSLRLSCAVSGRTFSSYAMGWFRQARGKEREFVAAVEWSSGSTFYTDSVKGRFAISRDIAKNTVYLQMNSLKPEDTAVYYCAGDHTGKLVFSKTSDYWGQGTQVTVSS
notes: as for B1
B26: 2CL29 (VHH)
VHH: QVQLQESGGGLVQPGDSLRLSCTASERTFTNYAMAWFRQAPGKERDVLATISRSGSSTFYAESVKGRFTISRDNTKNTVYLQMNSLEPEDTAVYYCAARPLVPSEDPDNYNYWGQGTQVTVSS
notes: as for B1
B27: 1CL88 (VHH)
VHH: QVQLQESGGGLVQAGGSLRLSCAASGRIFSNSAMGWFRQVLGKEREFVAAISENSSILYYTASVKGRFTISRDNDKNTVYLQMTSLKAEDTAVYYCAGYGSTTIRTTTRPTKWGQGTQVTVSS
notes: as for B1

biological target: T1, recombinant His6-tagged extracellular …; experiment: ELISA, TG1 periplasmic extract on coated antigen
Text: (§1) In total, 190 colonies from rounds 1 and 2 were randomly selected and analyzed by ELISA for the presence of antigen-specific VHH in their periplasmic extracts (ELISA using crude periplasmic extracts from TG1 cultures including soluble VHH). The antigen used for ELISA screening was the same as the one used for immunization, using uncoated blocked wells as negative control.

Going from B1 to B2, the ELISA coated rises from 1.31 to 3.86.

B3 and B4 are the same in ELISA coated: 3.89 for the first, 3.89 for the second.

First: B5
Second: B6
The ELISA coated of the first is lower: 3.79 for the first, 4 for the second.

First: B7
Second: B8
The ELISA coated of the first is higher: 0.664 for the first, 0.491 for the second.

First: B9
Second: B10
The ELISA coated of the first is higher: 4 for the first, 1.7 for the second.

First: B11
Second: B12
The ELISA coated of the first is higher: 4 for the first, 3.76 for the second.

First: B13
Second: B14
The ELISA coated of the first is lower: 2.03 for the first, 4 for the second.

Going from B15 to B16, the ELISA coated falls from 3.9 to 3.69.

Compared with B17, B18 is higher in ELISA coated: 1.12 for the first, 3.89 for the second.

Going from B19 to B20, the ELISA coated falls from 3.11 to 1.72.

Going from B21 to B22, the ELISA coated rises from 0.922 to 0.999.

Going from B23 to B24, the ELISA coated rises from 2.04 to 2.8.

Compared with B25, B26 is lower in ELISA coated: 3.3 for the first, 2.24 for the second.

Work on B27 yielded an ELISA coated of 4.

biological target: T1, recombinant His6-tagged extracellular …; experiment: ELISA, antigen-coated vs uncoated blocked wells
Text: as §1

Compared with B1, B2 is higher in ELISA ratio coated/uncoated: 10.7 for the first, 18.2 for the second.

Going from B3 to B4, the ELISA ratio coated/uncoated falls from 11.4 to 4.23.

Going from B5 to B6, the ELISA ratio coated/uncoated falls from 8.28 to 5.33.

Going from B7 to B8, the ELISA ratio coated/uncoated falls from 6.57 to 4.74.

Compared with B9, B10 is lower in ELISA ratio coated/uncoated: 21.4 for the first, 15 for the second.

Compared with B11, B12 is lower in ELISA ratio coated/uncoated: 9.79 for the first, 3.98 for the second.

First: B13
Second: B14
The ELISA ratio coated/uncoated of the first is higher: 14.1 for the first, 5.56 for the second.

First: B15
Second: B16
The ELISA ratio coated/uncoated of the first is higher: 12.8 for the first, 8.32 for the second.

Compared with B17, B18 is higher in ELISA ratio coated/uncoated: 4.72 for the first, 4.82 for the second.

Compared with B19, B20 is lower in ELISA ratio coated/uncoated: 13.3 for the first, 9.33 for the second.

First: B21
Second: B22
The ELISA ratio coated/uncoated of the first is lower: 4.38 for the first, 4.72 for the second.

Compared with B23, B24 is lower in ELISA ratio coated/uncoated: 18.6 for the first, 3.83 for the second.

First: B25
Second: B26
The ELISA ratio coated/uncoated of the first is lower: 4.82 for the first, 6.84 for the second.

For B27, the ELISA ratio coated/uncoated was 3.42.

— patent US20220119472A1 (ORIONIS BIOSCIENCES, published 2022)
